Patent US20250243281A1 (IMMUNITAS THERAPEUTICS, published 2025)
Residue numbers refer to the chain shown, from its start. Like-named read-outs stand apart in the source and are kept apart here.

B1: Ab18 (antibody, human IgG1, V domains shown)
VH: QVQLVESGGGLVKPGGSLRLSCAASGFTFSQYYMSWIRQAPGKGLEWVSYISPSGATIAYADSVKGRFTISRDNAKNSLYLQMNSLRAEDTAVYYCARSLMATGTHLYFDLWGRGTLVTVSS
VL: DIQLTQSPSSVSASVGDRVTITCRASQGISSWLAWYQQKPGKAPKLLIYAAESLQSGVPSRFSGSGSGTDFTLTISSLQPEDFATYYCQQVTSQPPYTFGGGTKVEIK
notes: IgG purified from yeast culture
B2: Ab20 (antibody, human IgG1, V domains shown)
VH: B1 VH with K13Q, A102S
VL: B1 VL with E52S, S53V, Q94F, P95L
notes: as for B1
B3: Ab16 (antibody, human IgG1, V domains shown)
VH: B1 VH with Q31D, A75S, S78T
VL: B1 VL with E52S, S53G, V91S, Q94F
notes: as for B1
B4: Ab12 (antibody, human IgG1, V domains shown)
VH: B1 VH with S30A, A56S
VL: B1 VL with G28D, E52S, Q94F
notes: as for B1
B5: Ab15 (antibody, human IgG1, V domains shown)
VH: B1 VH with S30P, A59Y, A102S
VL: B1 VL with E52S, Q94T
notes: as for B1
B6: Ab13 (antibody, human IgG1, V domains shown)
VH: B1 VH with S30A, Q31N
VL: B1 VL with Q27S, E52S, S53E, V91A, Q94F
notes: as for B1
B7: Ab17 (antibody, human IgG1, V domains shown)
VH: B1 VH with Q31D, A59Y, A102S
VL: B1 VL with E52S, Q94V
notes: as for B1
B8: Ab14 (antibody, human IgG1, V domains shown)
VH: B1 VH with S30G, A102S
VL: B1 VL with S31D, E52S, Q94F
notes: as for B1
B9: Ab3 (antibody, human IgG1, V domains shown)
VH: EVQLLESGGGLVQPGGSLRLSCAASGFTFERYAMSWVRQAPGKGLEWVSAISAAGGTTYYADSVKGRFTISRDNSKNTLYLQMNSLRAEDTAVYYCAKPLDSSQWADFDLWGRGTLVTVSS
VL: DIQLTQSPSSVSASVGDRVTITCRASQDISSWLAWYQQKPGKAPKFLIYAASALQSGVPSRFSGSGSGTDFTLTISSLQPEDFATYYCQQALVLPITFGGGTKVEIK
notes: as for B1
B10: Ab11 (antibody, human IgG1, V domains shown)
VH: B9 VH with E30S, R31Q
VL: B9 VL with D28G, S30Y, F46L, A53S, L92S, V93D
notes: as for B1
B11: Ab10 (antibody, human IgG1, V domains shown)
VH: B9 VH with E30S, R31Q, A54V, T57S
VL: B9 VL with F46L, L92D
notes: as for B1

Tests used:
hKLRF1 [1] = molecular target: T1, hKLRF1 (human, UniProt Q9NZS2 1-231); assay: flow cytometry; 100 nM antibody on HEK293 cells expressing KLRF1; Alexa Fluor 647 anti-human IgG; MFI
T1 construct: Overexpressed on HEK293 cells
T1 sequence: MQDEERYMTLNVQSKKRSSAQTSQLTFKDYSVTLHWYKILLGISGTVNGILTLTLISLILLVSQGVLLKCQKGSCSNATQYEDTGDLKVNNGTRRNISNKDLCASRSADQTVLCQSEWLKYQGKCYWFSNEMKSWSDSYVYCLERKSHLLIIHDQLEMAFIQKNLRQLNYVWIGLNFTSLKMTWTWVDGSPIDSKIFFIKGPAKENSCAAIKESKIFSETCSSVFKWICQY
Protocol: (§1) For the antibody binding assay, all cell lines were washed in phosphate-buffered saline with 0.1% bovine serum albumin (PBSA) and seeded in a 96 well plate at a density of 4×10⁴ cells per well. Washed cells were resuspended in 100 nM of antibody (a saturating concentration to measure maximum binding on cells) and incubated at room temperature for 30 minutes. […] Cells were analyzed by flow cytometry with a Thermo Fisher Attune flow cytometer.
(§2) Data were analyzed using FlowJo software. MFI for each sample was calculated and exported into Graphpad Prism.

hKLRF2 [2] = molecular target: T2, hKLRF2 (human, UniProt D3W0D1 1-207); assay: flow cytometry, HEK293 transfectants, 100 nM antibody;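 further: antibody applied at a saturating level and incubated with cells for 30 min at room temperature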
T2 construct: Overexpressed on HEK293 cells
T2 sequence: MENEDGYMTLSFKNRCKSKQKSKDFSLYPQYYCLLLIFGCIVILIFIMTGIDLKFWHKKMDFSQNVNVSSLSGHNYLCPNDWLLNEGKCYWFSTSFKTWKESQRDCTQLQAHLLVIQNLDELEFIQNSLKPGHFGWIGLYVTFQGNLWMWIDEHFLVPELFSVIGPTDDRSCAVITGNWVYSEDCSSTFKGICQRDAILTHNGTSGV
Protocol: as §1, §2

hCLEC12B [3] = molecular target: T3, hCLEC12B (human, UniProt Q2HXU8 1-276); assay: as above
T3 construct: Overexpressed on HEK293 cells
T3 sequence: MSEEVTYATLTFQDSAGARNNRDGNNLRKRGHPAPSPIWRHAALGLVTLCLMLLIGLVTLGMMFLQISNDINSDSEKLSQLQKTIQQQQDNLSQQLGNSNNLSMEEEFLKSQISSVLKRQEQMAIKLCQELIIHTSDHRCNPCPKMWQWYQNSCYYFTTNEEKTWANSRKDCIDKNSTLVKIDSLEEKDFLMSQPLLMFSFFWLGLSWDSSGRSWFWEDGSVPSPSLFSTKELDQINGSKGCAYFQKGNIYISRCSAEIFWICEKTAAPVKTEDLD
Protocol: as §1, §2

hCLEC2D [4] = molecular target: T4, hCLEC2D (human, UniProt Q9UHP7 1-191); assay: as above
T4 construct: Overexpressed on HEK293 or K562 cells; the same id is used for endogenous CLEC2D on NALM6 and Raji cells; also called LLT1
T4 sequence: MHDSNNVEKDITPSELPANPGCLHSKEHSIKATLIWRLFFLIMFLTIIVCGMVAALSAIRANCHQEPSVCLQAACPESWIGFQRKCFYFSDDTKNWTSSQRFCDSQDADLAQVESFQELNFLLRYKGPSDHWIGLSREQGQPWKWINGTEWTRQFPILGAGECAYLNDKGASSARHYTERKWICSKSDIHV
Protocol: as §1, §2

hKLRF1 [5] = molecular target: T1, hKLRF1; assay: as above
Protocol: as §1, §2

hCLEC12B [6] = molecular target: T3, hCLEC12B; assay: flow cytometry; 100 nM antibody on HEK293 cells expressing CLEC12B; Alexa Fluor 647 anti-human IgG; MFI
Protocol: as §1, §2

hCLEC2D [7] = molecular target: T4, hCLEC2D; assay: flow cytometry; 100 nM antibody on HEK293 cells expressing CLEC2D; Alexa Fluor 647 anti-human IgG; MFI
Protocol: as §1, §2

hKLRF2 [8] = molecular target: T2, hKLRF2; assay: flow cytometry; 100 nM antibody on HEK293 cells expressing KLRF2; Alexa Fluor 647 anti-human IgG; MFI
Protocol: as §1, §2

hKLRF1 [9] = molecular target: T1, hKLRF1; assay: flow cytometry; 100 nM antibody on HEK293 cells expressing KLRF1; Alexa Fluor 647 anti-human IgG; MFI; remark: listed apart in the source
Protocol: as §1, §2

hCLEC2D [10] = molecular target: T4, hCLEC2D; assay: flow cytometry; 100 nM antibody on HEK293 cells expressing CLEC2D; Alexa Fluor 647 anti-human IgG; MFI; remark: listed apart in the source
Protocol: as §1, §2

hKLRF2 [11] = molecular target: T2, hKLRF2; assay: flow cytometry; 100 nM antibody on HEK293 cells expressing KLRF2; Alexa Fluor 647 anti-human IgG; MFI; remark: listed apart in the source
Protocol: as §1, §2

Binder | binding result (hKLRF1 [1]) | % of CD161 binding (hKLRF2 [2]) [%] | % of CD161 binding (hCLEC12B [3]) [%] | % of CD161 binding (hCLEC2D [4]) [%] | % of CD161 binding (hKLRF1 [5]) [%] | binding result (hCLEC12B [6]) | binding result (hCLEC2D [7]) | binding result (hKLRF2 [8]) | binding result (hKLRF1 [9]) | binding result (hCLEC2D [10]) | binding result (hKLRF2 [11])
B1 | no binding (tested: 100 nM) | 0.101 | 0.169 | 0.865 | 0.121 | no binding (tested: 100 nM) | no binding (tested: 100 nM) | no binding (tested: 100 nM) | – | – | –
B2 | no binding (tested: 100 nM) | 0.054 | 0.061 | 0.968 | 0.132 | no binding (tested: 100 nM) | no binding (tested: 100 nM) | no binding (tested: 100 nM) | – | – | –
B3 | no binding (tested: 100 nM) | 0.048 | 0.088 | 0.865 | 0.061 | no binding (tested: 100 nM) | no binding (tested: 100 nM) | no binding (tested: 100 nM) | – | – | –
B4 | no binding (tested: 100 nM) | 0.055 | 0.061 | 1.16 | 0.065 | no binding (tested: 100 nM) | no binding (tested: 100 nM) | no binding (tested: 100 nM) | – | – | –
B5 | no binding (tested: 100 nM) | 0.067 | 0.071 | 0.935 | 0.114 | no binding (tested: 100 nM) | no binding (tested: 100 nM) | no binding (tested: 100 nM) | – | – | –
B6 | no binding (tested: 100 nM) | 0.089 | 0.175 | 0.907 | 0.106 | no binding (tested: 100 nM) | no binding (tested: 100 nM) | no binding (tested: 100 nM) | – | – | –
B7 | no binding (tested: 100 nM) | 0.051 | 0.038 | 1.08 | 0.078 | no binding (tested: 100 nM) | no binding (tested: 100 nM) | no binding (tested: 100 nM) | – | – | –
B8 | no binding (tested: 100 nM) | 0.054 | 0.064 | 1.02 | 0.09 | no binding (tested: 100 nM) | no binding (tested: 100 nM) | no binding (tested: 100 nM) | – | – | –
B9 | – | -0.007 | -0.042 | 0.832 | 0.011 | – | – | – | no binding (tested: 100 nM) | no binding (tested: 100 nM) | –
B10 | – | 0.021 | -0.003 | 0.785 | 0.024 | – | – | – | no binding (tested: 100 nM) | no binding (tested: 100 nM) | no binding (tested: 100 nM)
B11 | – | 0.004 | -0.004 | 0.935 | 0.046 | – | – | – | no binding (tested: 100 nM) | no binding (tested: 100 nM) | no binding (tested: 100 nM)
